Experimental data from paper PMC10382551, “Affinity-matured homotypic interactions induce spectrum of PfCSP structures that influence protection from malaria infection” (Nature Communications, 2023).
Ends that are not written are not given here.

T1: NPNA4 peptide (Plasmodium falciparum (isolate 3D7)., not fully specified)
T1 construct: source: synthetic peptide (InnoPep Inc, purity >=97%)
T1 chain: NPNANPNANPNANPNA

T2: NPNA8 peptide (Plasmodium falciparum (isolate 3D7)., not fully specified)
T2 construct: source: synthetic peptide (InnoPep Inc, purity >=97%)
T2 chain: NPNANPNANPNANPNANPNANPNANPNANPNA

T3: NPNA4 peptide, biotinylated at the C-terminus (BLI) (Plasmodium falciparum (isolate 3D7).)
T3 construct: source: synthetic peptide (InnoPep Inc)
T3 chain: NPNANPNANPNANPNA-biotin

T4: NPNA8 peptide (used for cryo-EM with Fab 227) (Plasmodium falciparum, not fully specified)
T4 construct: source: synthetic peptide (InnoPep Inc)
T4 chain: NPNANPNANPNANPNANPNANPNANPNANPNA


Columns and labels:
Settings in all cases: both partners purified
NPNA4 peptide = molecular target: T1, NPNA4 peptide; assay: BLI
NPNA8 peptide = molecular target: T2, NPNA8 peptide; assay: BLI
[1] = molecular target: T3, NPNA4 peptide, biotinylated at the …; assay: BLI
[2] = molecular target: T4, NPNA8 peptide (used for cryo-EM with …); assay: cryo-EM structure; saturating amounts of Fab incubated with rsCSP (or NPNA8 for Fab 227) overnight at 4 °C, complex purified by SEC (Superose 6 Increase, TBS), single particle cryo-EM
[3] = molecular target: T4, NPNA8 peptide (used for cryo-EM with …); assay: as above

Row | Binder | Kd (NPNA4 peptide) | Kd (NPNA8 peptide) | also measured
1 | 311R Fab (Fab, V domains shown, also called Fab311R; germline-reverted 311; source: ExpiCHO cells, purified (mAb Select PrismA or Capture Select, SEC)) VH: QVQLVESGGGVVPPGRSLRLSCATSGFTFSSYGMHWVRQAPGKGLEWVAIIWYDGSNKFYAASVKGRFTISRDNSKNTLYLQMNSLRVEDTAVYYCARAAYYDTSGYGDYWGQGTLVTVSS VL: QSVLTQPPSVSGAPGQTVTISCTGGSSNIGAGYDVHWYQQLPGTAPKLLIYGNINRPSGVPDRFSGSKSGTSASLAITGLQAEDEADYYCQSYDSSLSGSWVFGGGTKLTVL | 131 nM | 401 nM | –
2 | 337 Fab (Fab, V domains shown, source: ExpiCHO cells, purified (mAb Select PrismA or Capture Select, SEC)) VH: QVQLVESGGGVVQPGRSLRLSCAASGFSFSTYGMHWVRQAPGKGLEWVALIWHDGSKKFYSESVRGRFTISRDNSMDTLYLQMSSLRAEDTAVYYCARDGADYFDSTGGAFDIWGQGTMVIVSS VL: EIVMTQSPATLSVSPGERATLSCRASQSVSSNLAWYQQKPGQAPRLLIYGASTRATGIPARFSGSGSGTEFTLTISSLQSEDFATYYCQQYKTWWTFGQGTKVEIK | 36.9 nM | 39.4 nM | –
3 | Fab 239R, germline-reverted mutant of 239 (Fab, V domains shown, source: ExpiCHO cells, purified (mAb Select PrismA or Capture Select, SEC)) VH: QVQLVESGGGVVQPGRSLRLSCAASRLTFSSYGMHWVRQTPGKGLEWVAVIWHDGSNKFYADSVKGRFTISRDNSKNTLYLQMNSLRDEDTAIYYCAKDWGGASDRVFDYWGRGTLVIVSS VL: DIQMTQSPSTLSASVGDRVTITCRASQSVSTSLAWYQQKPGKAPNLLIYQASTLYTGVPSRFSGSGSGTEFTLTIGSLQPDDFATYYCQHYNSYSRITFGQGTRLEIK | – | – | fold change of apparent affinity against 239 [1]: ~2 fold
4 | 239R Fab (Fab, V domains shown, also called Fab239R; 239 FabR; source: ExpiCHO cells, purified (mAb Select PrismA or Capture Select, SEC)) VH: QVQLVESGGGVVQPGRSLRLSCAASRLTFSSYGMHWVRQTPGKGLEWVAVIWHDGSNKFYADSVKGRFTISRDNSKNTLYLQMNSLRDEDTAIYYCAKDWGGASDRVFDYWGRGTLVIVSS VL: DIQMTQSPSTLSASVGDRVTITCRASQSVSTSLAWYQQKPGKAPNLLIYQASTLYTGVPSRFSGSGSGTEFTLTIGSLQPDDFATYYCQHYNSYSRITFGQGTRLEIK | 165 nM | 205 nM | –
5 | 364 Fab (Fab, V domains shown, source: ExpiCHO cells, purified (mAb Select PrismA or Capture Select, SEC)) VH: QVQLVESGGGVVQPGGSLRLSCAASGFTFSGYGMHWVRQVPGKGLEWVAIIWFDGSQKYYADSVQGRFTISRDNSKKTLFLRMNSLRAEDTAVYYCAKVHDDEPTQDYWGQGTLVTVSS VL: DIQMTQSPSTLSASVGDRVTITCRASQGISTSLAWYQQKPGKAPKLLIYKASSLESGVPSRFSGSGSGTEFTLTITSLQPEDFATYYCQQYKRYWTFGQGTKVEIK | 260 nM | 4.88 nM | –
6 | 334 Fab (Fab, V domains shown, source: ExpiCHO cells, purified (mAb Select PrismA or Capture Select, SEC)) VH: QVQLVESGGGVVQPGRSLTLSCAASGFTFSNYGMHWVRQTPGKGLAWVAIIWYDGSKTYYEDSVKGRFTISRDNSKNTLYLQMNSLRVDDTAVYYCARVRHSSSRHGSAFDLWGQGTLVTVSS VL: VIQMTQSPSTLSASVGDRVTITCRASQSVSTWLAWYQQKPGQGPKLLIYEASSLESGVPSRFSGSGSGTEFTLTISSLQPDDFATYYCQQYNSYSFWTFGQGTKVEIK | 49.9 nM | 22.4 nM | –
7 | Fab of mAb 227 (Fab, V domains shown, also called 227 Fab; source: ExpiCHO cells, purified (mAb Select PrismA or Capture Select, SEC)) VH: QVQLVQSGGGVVQPGRSLRLSCVTSGFTFPAFGMHWVRQAPGKGLEWVAVIWYDGSKKYYADSVRGRFTISRDNSRNTLYLQMHSLRAEDTAVYYCARVKNYESSGYSQCLDYWGQGVLVTVAS VL: QSVLTQPPSVSGAPGQRVTISCTGSSSNIGAGYDVHWYQQLPGTAPKLLIYGNGNRPSGVPDRFSGSKSGTSVSLAITGLQAEDEADYYCQSYDSSLSAFVFGTGTKVTVL | – | – | stoichiometry N [2]: 4 Fabs per NPNA8 disc; stoichiometry N [3]: 8 Fabs bound
8 | Fab 356R, germline-reverted mutant of 356 (Fab, V domains shown, source: ExpiCHO cells, purified (mAb Select PrismA or Capture Select, SEC)) VH: QVQLVESGGGVVQPGRSLRLSCAASGFTFSSYGMHWVRQTPGKGLEWVAVIWHDGSNKFYADSVKGRFTISRDNSKNMIYLQMNSLRVEDTAIYYCARDSLFYDHDNSGYYGYWGQGTLVTVSS VL: EIVMTQSPATVSVSPGERATLSCRASQSVTSKLAWYQQKPGQAPRLLIYGASTRATGIPARFSGSGSGTEFTLTISSLQSEDFAVYFCQQYNNGFTFGPGTKVDFK | – | – | fold change of apparent affinity against 356 [1]: ~2 fold
9 | 356 Fab (Fab, V domains shown, source: ExpiCHO cells, purified (mAb Select PrismA or Capture Select, SEC)) VH: QVQLVESGGGVVQPGRSLRLSCAASGFTFRNFGMHWVRQTPGKGLEWVAVIWHDGSNKFYADSVEGRFTISRDNSKNMIYLQMNSLRVEDTAIYYCARDSLFYDHDNSGYYGYWGQGTLVTVSS VL: QIVMTQSPATVSVSPGERATLSCRASRSVTSKLAWYQQKPGQAPRLLIYGASTRATGIPARFSGSGSGTEFTLTISSLQSEDFAVYFCQQYNNGFTFGPGTKVDFK | 123 nM | 6.35 nM | –
